This note sets out measurements from US20230002496A1 (STAIDSON BEIJING BIOPHARMACEUTICALS, published 2023).

T1: human GM-CSFRα-6His (human, UniProt P15509 23-320)
T1 construct: pTT5-GMRa-6his (ECD), made in 293F cells; also called GMRah; GMRa-6his(ECD)
T1 sequence: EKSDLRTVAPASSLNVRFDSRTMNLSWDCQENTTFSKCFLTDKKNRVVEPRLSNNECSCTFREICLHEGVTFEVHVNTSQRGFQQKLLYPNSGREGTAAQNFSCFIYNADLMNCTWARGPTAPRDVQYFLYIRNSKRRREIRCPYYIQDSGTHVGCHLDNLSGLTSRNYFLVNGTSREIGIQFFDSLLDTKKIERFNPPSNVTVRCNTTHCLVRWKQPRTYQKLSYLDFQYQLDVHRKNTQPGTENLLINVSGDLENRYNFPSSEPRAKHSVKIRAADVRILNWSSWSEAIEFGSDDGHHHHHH

B1: E30-IgG1 (antibody, V domains shown)
VH: QMQLVQSGAEVKKPGASVKVSCKVSGHTLTELSIHWVRQAPGKGLEWMGGFDPEDGETIYAQKFQGRVTMTGDTSTDTAYLELSSLRSEDTALYYCATGRYCSTDTCYGFDYWGQGTLVTVSS
VL: EIVMTQSPATLSLSPGERATLSCRASQSVSSYLAWYQQKPGQAPRLLIYGASSRATGIPDRFSGSGSGTDFTLTISRLEPEDFAVYYCQQYDNSPHTFGQGTKLEIK
notes: human IgG1, human kappa
B2: E34-IgG1 (antibody, V domains shown)
VH: QMQLVQSGAEVKKPGASVKVSCKVSGYTLTELSIHWVRQAPGKGLEWMGGFDPEDGETIYAQKFQGRVTMTGDTSTDTAYLELSSLRSEDTALYYCATGRYSFTDLAYGFDYWGQGTLVTVSS
VL: EIVMTQSPATLSLSPGERATLSCRASQSVSSYLAWYQQKPGQAPRLLIYGASSRATGIPDRFSGSGSGTDFTLTISRLEPEDFAVYYCQQYDSSPPTFGQGTKLEIK
notes: human IgG1, human kappa
B3: E29-IgG1 (antibody, V domains shown)
VH: QMQLVQSGAEVKKPGASVKVSCKVSGHTLTELSIHWVRQAPGKGLEWMGGFDPEDGETIYAQKFQGRVTMTGDTSTDTAYLELSSLRSEDTALYYCATGRYCFPDTCYGFDYWGQGTLVTVSS
VL: EIVMTQSPATLSLSPGERATLSCRASQSVSSYLAWYQQKPGQAPRLLIYGASSRATGIPDRFSGSGSGTDFTLTISRLEPEDFAVYYCQQYDNSPHTFGQGTKLEIK
notes: human IgG1, human kappa
B4: E16-IgG1 (antibody, V domains shown)
VH: QMQLVQSGAEVKKPGASVKVSCKVSGYTLTELSIHWVRQAPGKGLEWMGGFDPEDGEAIYAQKSQGRVTMTGDTSTDTAYLELSSLRSEDTALYYCATGRYSEHSTSYGFDYWGQGTLVTVSS
VL: EIVMTQSPATLSLSPGERATLSCRASQSVSSYLAWYQQKPGQAPRLLIYGASSRATGIPDRFSGSGSGTDFTLTISRLEPEDFAVYYCQQYDSWPYTFGQGTKLEIK
notes: human IgG1, human kappa
B5: E54-IgG1 (antibody, V domains shown)
VH: QMQLVQSGAEVKKPGASVKVSCKVSGYTLTELSMHWVRQAPGKGLEWMGGFDPEDGETIYAQKFQGRVTMTGDTSTDTAYLELSSLRSEDTALYYCATGRYSSYDIAYGFDYWGQGTLVTVSS
VL: EIVMTQSPATLSLSPGERATLSCRASQSVSSYLAWYQQKPGQAPRLLIYGASSRATGIPDRFSGSGSGTDFTLTISRLEPEDFAVYYCQQYNSSPPTFGQGTKLEIK
notes: human IgG1, human kappa
B6: E27-IgG1 (antibody, V domains shown)
VH: QMQLVQSGAEVKKPGASVKVSCKVSGYTLTELSIHWVRQAPGKGLEWMGGFDPEDGETIYAQKFQGRVTMTGDTSTDTAYLELSSLRSEDTALYYCATGRYISFMFTYGFDYWGQGTLVTVSS
VL: EIVMTQSPATLSLSPGERATLSCRASQSVSSYLAWYQQKPGQAPRLLIYGASSRATGIPDRFSGSGSGTDFTLTISRLEPEDFAVYYCQQYNNWPPTFGQGTKLEIK
notes: human IgG1, human kappa
B7: E09-IgG1 (antibody, V domains shown)
VH: QMQLVQSGAEVKKPGASVKVSCKVSGHTLTELSMHWVRQAPGKGLEWMGGFDPEDGETIYAQKFQGRVTMTGDTSTDTAYLELSSLRSEDTALYYCATGRYCGHASCYGFDYWGQGTLVTVSS
VL: EIVMTQSPATLSLSPGERATLSCRASQSVSSYLAWYQQKPGQAPRLLIYGASSRATGIPDRFSGSGSGTDFTLTISRLEPEDFAVYYCQQYNNWPPTFGQGTKLEIK
notes: human IgG1, human kappa; also called E9
B8: T119-IgG1 (antibody, V domains shown)
VH: QMQLVQSGAEVKKPGASVKVSCKVSGHTLTELSIHWVRQAPGKGLEWMGGFDPEDGETNYAQKSQGRVTMTGDTSTDTAYLELSSLRSEDTALYYCATGRYCSTDTCYGFDYWGQGTLVTVSS
VL: EIVMTQSPATLSLSPGERATLSCRASQSVSSYLAWYQQKPGQAPRLLIYGASSRATGIPDRFSGSGSGTDFTLTISRLEPEDFAVYYCQQYNNWPPTFGQGTKLEIK
notes: human IgG1, human kappa; parent antibody
B9: E40-IgG1 (antibody, V domains shown)
VH: QMQLVQSGAEVKKPGASVKVSCKVSGHTLTELSIHWVRQAPGKGLEWMGGFDPEDGETIYAQKFQGRVTMTGDTSTDTAYLELSSLRSEDTALYYCATGRYTSLDESYGFDYWGQGTLVTVSS
VL: EIVMTQSPATLSLSPGERATLSCRASQSVSSYLAWYQQKPGQAPRLLIYGASSRATGIPDRFSGSGSGTDFTLTISRLEPEDFAVYYCQQYDNSPYTFGQGTKLEIK
notes: human IgG1, human kappa
B10: E39-IgG1 (antibody, V domains shown)
VH: QMQLVQSGAEVKKPGASVKVSCKVSGHTLTELSIHWVRQAPGKGLEWMGGFDPEDGETIYAQKFQGRVTMTGDTSTDTAYLELSSLRSEDTALYYCATGRYCSSDLCYGFDYWGQGTLVTVSS
VL: EIVMTQSPATLSLSPGERATLSCRASQSVSSYLAWYQQKPGQAPRLLIYGASSRATGIPDRFSGSGSGTDFTLTISRLEPEDFAVYYCQQYDNSPHTFGQGTKLEIK
notes: human IgG1, human kappa
B11: E01-IgG1 (antibody, V domains shown)
VH: QMQLVQSGAEVKKPGASVKVSCKVSGHTLTELSIHWVRQAPGKGLEWMGGFDPEDGETNYAQKSQGRVTMTGDTSTDTAYLELSSLRSEDTALYYCATGRYCSTDTCYGFDYWGQGTLVTVSS
VL: EIVMTQSPATLSLSPGERATLSCRASQSVSSYLAWYQQKPGQAPRLLIYGASSRATGIPDRFSGSGSGTDFTLTISRLEPEDFAVYYCQQYDNWPPTFGQGTKLEIK
notes: human IgG1, human kappa; also called E1
B12: E31-IgG1 (antibody, V domains shown)
VH: QMQLVQSGAEVKKPGASVKVSCKVSGYTLTELSIHWVRQAPGKGLEWMGGFDPEDGETIYAQKSQGRVTMTGDTSTDTAYLELSSLRSEDTALYYCATGRYSESFASYGFDYWGQGTLVTVSS
VL: EIVMTQSPATLSLSPGERATLSCRASQSVSSYLAWYQQKPGQAPRLLIYGASSRATGIPDRFSGSGSGTDFTLTISRLEPEDFAVYYCQQYDNWPYTFGQGTKLEIK
notes: human IgG1, human kappa
B13: E164-IgG1 (antibody, V domains shown)
VH: QMQLVQSGAEVKKPGASVKVSCKVSGHTLTELSMHWVRQAPGKGLEWMGGFDPEDGETIYAQKSQGRVTMTGDTSTDTAYLELSSLRSEDTALYYCATGRYTNDFANYGFDYWGQGTLVTVSS
VL: EIVMTQSPATLSLSPGERATLSCRASQSVSSYLAWYQQKPGQAPRLLIYGASSRATGIPDRFSGSGSGTDFTLTISRLEPEDFAVYYCQQYNNWPYTFGQGTKLEIK
notes: human IgG1, human kappa
B14: E90-IgG1 (antibody, V domains shown)
VH: QMQLVQSGAEVKKPGASVKVSCKVSGYTLTELSIHWVRQAPGKGLEWMGGFDPEDGETIYAQKSQGRVTMTGDTSTDTAYLELSSLRSEDTALYYCATGRYTGLYASYGFDYWGQGTLVTVSS
VL: EIVMTQSPATLSLSPGERATLSCRASQSVSSYLAWYQQKPGQAPRLLIYGASSRATGIPDRFSGSGSGTDFTLTISRLEPEDFAVYYCQQYDNWPYTFGQGTKLEIK
notes: human IgG1, human kappa
B15: E61-IgG1 (antibody, V domains shown)
VH: QMQLVQSGAEVKKPGASVKVSCKVSGYTLTELSMHWVRQAPGKGLEWMGGFDPEDGETIYAQKFQGRVTMTGDTSTDTAYLELSSLRSEDTALYYCATGRYAWTDIAYGFDYWGQGTLVTVSS
VL: EIVMTQSPATLSLSPGERATLSCRASQSVSSYLAWYQQKPGQAPRLLIYGASSRATGIPDRFSGSGSGTDFTLTISRLEPEDFAVYYCQQYDNSPSTFGQGTKLEIK
notes: human IgG1, human kappa
B16: E172-IgG1 (antibody, V domains shown)
VH: QMQLVQSGAEVKKPGASVKVSCKVSGYTLTELSMHWVRQAPGKGLEWMGGFDPEDGETIYAQKFQGRVTMTGDTSTDTAYLELSSLRSEDTALYYCATGRYANLYNNYGFDYWGQGTLVTVSS
VL: EIVMTQSPATLSLSPGERATLSCRASQSVSSYLAWYQQKPGQAPRLLIYGASSRATGIPDRFSGSGSGTDFTLTISRLEPEDFAVYYCQQYNNWPPTFGQGTKLEIK
notes: human IgG1, human kappa
B17: E88-IgG1 (antibody, V domains shown)
VH: QMQLVQSGAEVKKPGASVKVSCKVSGHTLTELSMHWVRQAPGKGLEWMGGFDPEDGETIYAQKFQGRVTMTGDTSTDTAYLELSSLRSEDTALYYCATGRYCHKDGCYGFDYWGQGTLVTVSS
VL: EIVMTQSPATLSLSPGERATLSCRASQSVSSYLAWYQQKPGQAPRLLIYGASSRATGIPDRFSGSGSGTDFTLTISRLEPEDFAVYYCQQYDSSPHTFGQGTKLEIK
notes: human IgG1, human kappa
B18: E83-IgG1 (antibody, V domains shown)
VH: QMQLVQSGAEVKKPGASVKVSCKVSGYTLTELSIHWVRQAPGKGLEWMGGFDPEDGETIYAQKSQGRVTMTGDTSTDTAYLELSSLRSEDTALYYCATGRYCFYDLCYGFDYWGQGTLVTVSS
VL: EIVMTQSPATLSLSPGERATLSCRASQSVSSYLAWYQQKPGQAPRLLIYGASSRATGIPDRFSGSGSGTDFTLTISRLEPEDFAVYYCQQYSNSPPTFGQGTKLEIK
notes: human IgG1, human kappa
B19: E84-IgG1 (antibody, V domains shown)
VH: QMQLVQSGAEVKKPGASVKVSCKVSGYTLTELSMHWVRQAPGKGLEWMGGFDPEDGETIYAQKSQGRVTMTGDTSTDTAYLELSSLRSEDTALYYCATGRYTRGWFNYGFDYWGQGTLVTVSS
VL: EIVMTQSPATLSLSPGERATLSCRASQSVSSYLAWYQQKPGQAPRLLIYGASSRATGIPDRFSGSGSGTDFTLTISRLEPEDFAVYYCQQYNNWPYTFGQGTKLEIK
notes: human IgG1, human kappa

For the first test, the target named is T1, human GM-CSFRα-6His. The experiment in a line: ELISA on human GM-CSFRα, antibodies as human IgG1; x axis 'Log Ab concentration', no unit. (An ELISA detects its analyte on a solid surface through an enzyme-linked reagent.)
B1: the binding result is “binds”.

In the case of B2, the binding result is recorded as “binds”.

Take B3: the binding result was “binds”.

For B4, the binding result is “binds”.

For the molecule B5, the binding result is reported as “binds”.

For B6, the binding result is listed as “binds”.

For the molecule B7, the binding result is reported as “binds”.

Regarding B8, the binding result is “binds”.

A further test addresses T1, human GM-CSFRα-6His. The description is as above. This is another data set of the same source.
For the molecule B9, the binding result is “binds”.

In the case of B10, the binding result is “binds”.

The target in another test is T1, human GM-CSFRα-6His. The description is as above. This is another data set of the same source.
For B11, the binding result is “binds”.

Turning to B12, the binding result is on record as “binds”.

As to B13, the binding result is listed as “binds”.

As for B14, the binding result is reported as “binds”.

As to B15, the binding result was “binds”.

Regarding B16, the binding result is reported as “binds”.

Regarding B17, the binding result is “binds”.

With B18, the binding result is “binds”.

B19: the binding result is “binds”.
